Reference: paper PMC6127294, “Jungle Express is a versatile repressor system for tight transcriptional control” (Nature Communications, 2018)

Target: the molecule itself
Test: crystal structure; EilR (selenomethionine-labeled) in complex with the duplexed eilOc operator oligonucleotide, 2:1 protein:DNA molar ratio; 0.1 M Li2SO4, 0.1 M MgCl2, 0.1 M HEPES pH 7.5, 20% PEG 3350, 10% hexanediol

B1: EilR (natural protein, Enterobacter lignolyticus)
chain: MGYLNREERRETIMQAAMRVALDQGFTGMTVRNIATAAGVAAGQVHHHFTSSGELKSQAFIRVIREMMDLQRLSRTAGWREQLFSALGSEDGRLEPYIRLWRQAQLLADSDPEIKSAYLLTMNLWHDEAVRIIRAGHAAGEFTLRDSAENIAWRLISLVCGLDGIYVLGMPEVDDAAFTRHLQHVIQLELFS
modifications: selenomethionine-labeled protein for the EilR-eilO crystal structure
notes: 21.6 kDa monomer; also called EilR repressor; EilR-His8 (before cleavage of the tag); source: E. coli harboring pLane-eilR, purified (His-Trap, TEV cleavage, second His-Trap flowthrough)
  stoichiometry N: 2
